Experimental data taken from paper PMC12085566.

Target: BG505 SOSIP.664 Env trimer (HIV-1 (isolate BG505))
Test: cryo-EM structure

4-domain CD4 (receptor) gave a stoichiometry N (molecules per Env) of 3.
